The source of these data is patent US7691567B2, “Methods and compositions relating to fortilin, an anti-apoptotic molecule, and modulators of fortilin” (Board of Regents, the University of Texas System, priority 2000, dated 2010).

“Also recorded” adds a separate entry of the source. Like-named read-outs stand apart in the source and are kept apart here.

One data set deals with H1299 cells. In words: p53-mediated apoptosis in transfected H1299 cells (apoptotic index). The format is cell-based. As to conditions: overexpression, thirty hours after transfection. The method, then: Because wild-type p53 can induce apoptosis, the ability of Fortilin to prevent or inhibit p53-mediated apoptosis was examined. H1299 cells were transfected with indicated combinations of mammalian expression constructs. Thirty hours after the transfection, cells were fixed and stained for beta-galactosidase activities. Cells that were round in shape with significant membrane irregularity were counted as apoptotic (FIG. 5). Apoptotic index was calculated as (Blue cells with apoptotic plasma membrane morphology)/(Total blue cells counted)×100.

For data set [1], the system named is U2OS cells. The conditions noted are these: for cytotoxicity index relative to control transfectants: U2OS stable transfectants of HA-tagged Fortilin or deletion mutants, 5 μg/mL etoposide 48 hours.
Source text: Generation and characterization of U2OS cells stably expressing Fortilin. U2OS cells were transfected with empty pcDNA6, a mammalian expression vector containing a blasticidine resistance gene (Invitrogen, Carlsbad, Calif.), or with pcDNA6 vector encoding wild-type Fortilin, by using FuGENE6 (Roche Molecular Biochemicals) according to the manufacturer's instructions. Transfected cells were selected for approximately 3 weeks and characterized by Western blot analysis. For the cytotoxicity assay, U2OS cells stably expressing wild-type Fortilin (U2OS.F) and U2OS cells stably harboring empty pcDNA6 (U2OS.E) were seeded in a 96 well plate in quadruplicate. For the investigation of dose response, cells were challenged with various concentrations of etoposide (0-20 μg/mL) for 48 hours. For the time course study, cells were challenged with 5 μg/mL of etoposide and harvested after various incubation periods (0-96 hours). In both cases, the cell media were assayed for the lactate dehydrogenase (LDH) activity released from the cytosol of damaged cells, using a cytotoxicity detection kit (Roche Molecular Biochemicals) according to the manufacturer's instructions. The cytotoxicity index was calculated as follows: (LDH activity in the media−background LDH activity)÷(LDH activity in the medium of cells lysed by 1% Triton X-100−background LDH activity)×100.
Cell death assay. U2OS cells stably expressing Fortilin or its mutants were seeded in 96-well plates in triplicate. Cells were then challenged with 5 μg/mL of etoposide (Sigma) for 48 hours. Then the cell media were assayed for the lactate dehydrogenase (LDH) activity released from the cytosol of damaged cells, using a Cytotoxicity Detection Kit (Roche Molecular Biochemicals), according to the manufacturer's instructions. The cytotoxicity index was calculated as follows: (LDH activity in the media−background LDH activity)/(LDH activity in the medium of the cells lysed by 1% Triton X-100−background LDH activity)×100.
Statistical analysis. For analysis of the statistical significance of differences in cytotoxicity indices among cells stably transfected with Fortilin, its mutants or control plasmids, Student's t-test was performed using a commercial software (Minitab Inc., State College, Pa.). In all cases, a P-value less than 0.05 was considered to be statistically significant.
The target in another data set is p53 (Homo sapiens, UniProt P04637). In words: Coimmunoprecipitation of fortilin and p53 from U2OS cell lysates. The format is binding. Also noted: endogenous in cells; host or cells: U2OS. As to the method: As in example 2, studies were initiated to determine whether p53 and Fortilin specifically interact in U2OS cells. Six million U2OS cells stably expressing either HA-fortilin or HA-only were suspended in lysis-binding-wash buffer (50 mM HEPES, pH7.5, 70 mM KCl, 0.5 mM ATP, 5 mM MgSO4, 1 mM DTT, 0.1% NP40, 2 mg/mL BSA, Aprotinin, PMSF, MG132 and protease inhibitor cocktail). Cells were then mechanically disrupted by nitrogen excavitation method. Cleared total cell lysates were incubated with […] anti-HA antibody (3F10, Roche), followed by the incubation with anti-mouse IgG conjugated to magnetic beads (Dynal USA) and extensive wash with lysis-binding-wash buffer.
Chain of p53 (P04637 whole entry, species assumed): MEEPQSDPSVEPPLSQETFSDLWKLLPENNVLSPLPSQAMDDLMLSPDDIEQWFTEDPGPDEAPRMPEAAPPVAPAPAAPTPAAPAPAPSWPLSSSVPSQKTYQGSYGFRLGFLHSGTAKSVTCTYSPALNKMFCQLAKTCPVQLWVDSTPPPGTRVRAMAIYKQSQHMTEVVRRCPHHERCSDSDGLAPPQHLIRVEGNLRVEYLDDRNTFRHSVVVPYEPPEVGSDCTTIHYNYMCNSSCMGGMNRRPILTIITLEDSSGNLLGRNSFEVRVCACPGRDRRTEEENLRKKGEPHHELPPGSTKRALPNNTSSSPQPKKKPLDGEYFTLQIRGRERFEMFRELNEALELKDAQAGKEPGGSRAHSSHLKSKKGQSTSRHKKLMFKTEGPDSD
Further experiments were conducted to determine in vivo immunoprecipitation of fortilin by p53. Twenty million U2OS cells were suspended in lysis-binding buffer (50 mM HEPES, pH7.5, 70 mM KCl, 0.5 mM ATP, 5 mM MgSO4, 1 mM DTT, 0.001% NP40, 2 mg/mL BSA, Aprotinin, PMSF, MG132 and protease inhibitor cocktail). Cells were then mechanically disrupted by nitrogen excavitation method. Cleared total cell lysates were divided equally into two eppendorf tubes. To the first tube, anti-p53 antibody (DO-1, […]) was added, while […] control monoclonal antibody was added to the second tube. After incubation, formed complexes were precipitated by goat anti-mouse IgG conjugated to magnetic beads (Dynal USA), followed by extensive wash. […]

Data set [2] deals with T1, MCL1 (Homo sapiens, UniProt Q07820). Put plainly: In vitro pull-down assay of HA-tagged Fortilin or mutants with MCL1. The format is binding. As to conditions: in vitro translated 35S-labeled proteins, anti-HA pull-down.
T1 sequence (Q07820 whole entry): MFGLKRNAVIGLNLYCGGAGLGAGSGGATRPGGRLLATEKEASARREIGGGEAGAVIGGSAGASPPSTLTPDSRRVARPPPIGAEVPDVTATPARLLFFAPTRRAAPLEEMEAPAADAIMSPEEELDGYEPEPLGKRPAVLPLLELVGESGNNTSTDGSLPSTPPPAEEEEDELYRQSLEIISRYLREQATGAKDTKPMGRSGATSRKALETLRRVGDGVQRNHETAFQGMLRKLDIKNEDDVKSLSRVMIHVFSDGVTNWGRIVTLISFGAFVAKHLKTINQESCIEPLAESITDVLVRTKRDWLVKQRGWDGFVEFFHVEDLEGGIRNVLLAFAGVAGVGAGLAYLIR
The next data set deals with Bcl-xL (Homo sapiens, UniProt Q07817). Put plainly: In vitro pull-down assay of Fortilin-HA with Bcl-xL. It is filed as binding. The conditions noted are these: in vitro translated proteins, anti-HA pull-down.
Chain of Bcl-xL (Q07817 whole entry, species assumed): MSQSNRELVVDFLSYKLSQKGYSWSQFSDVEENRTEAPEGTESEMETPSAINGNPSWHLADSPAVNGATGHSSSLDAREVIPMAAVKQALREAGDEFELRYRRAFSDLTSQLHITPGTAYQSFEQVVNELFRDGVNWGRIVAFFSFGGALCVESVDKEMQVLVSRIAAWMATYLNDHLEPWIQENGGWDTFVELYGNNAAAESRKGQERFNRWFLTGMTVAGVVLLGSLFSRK
Data set [3] has as its system U2OS cells. In words: Bax-mediated apoptosis in transfected U2OS cells (apoptotic index). As to conditions: U2OS cells cotransfected with Bax-pcDNA3, thirty hours after transfection. It is filed as cell-based. The method, then:
The amount of LacZ-pFLAG was 1/10 to 1/20 (w/w) of total amounts of DNA added. Thirty hours after the transfection, cells were stained with X-gal. Blue cells represented cells expressing Bax, β-galactosidase and indicated proteins in question. At least 300 blue cells were counted and evaluated for plasma membrane morphology. Rounded cells were counted as apoptotic. Apoptotic index was calculated as the number of blue apoptotic cells divided by the number of total blue cells counted, expressed in percentage. Without the expression of Bax, there was a modest amount of background cell death noted (Lane 6). On the other hand, the presence of Bax caused 2 holds increase in the number of apoptotic cells (Lane 5). […] Taken together, the ability of Fortilin to inhibit Bax mediated apoptosis is mediated by its interaction with MCL1.

The target of the next data set is PCNA (Homo sapiens, UniProt P12004). In words: In vitro pull-down assay of Fortilin-HA with PCNA. The format is binding. The conditions noted are these: in vitro translated proteins, anti-HA pull-down.
Chain of PCNA (P12004 whole entry, species assumed): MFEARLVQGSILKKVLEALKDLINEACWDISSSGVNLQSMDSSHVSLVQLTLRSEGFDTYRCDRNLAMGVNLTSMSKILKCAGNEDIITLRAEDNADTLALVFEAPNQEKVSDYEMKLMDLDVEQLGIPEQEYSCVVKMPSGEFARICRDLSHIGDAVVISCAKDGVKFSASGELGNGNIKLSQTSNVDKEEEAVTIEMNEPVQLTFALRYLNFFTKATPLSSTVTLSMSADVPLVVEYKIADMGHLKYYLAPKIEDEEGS
Data set [4] addresses T1, MCL1. Put plainly: In vivo coimmunoprecipitation assay in U2OS stable transfectants of Fortilin and mutants. As to conditions: anti-HA immunoprecipitation.
Source text: In vivo coimmunoprecipitation assay. COS-7 cells (2.5×10^6) were cotransfected with pcDNA3-Fortilin-HA or pcDNA3 and with FLAG-MCL1/pFLAG-CMV or pFLAG-CMV vectors using FuGENE6 (Roche Molecular Biochemicals), according to the manufacturer's instructions. […] Formed complexes were precipitated by sheep anti-rat antibodies conjugated to Dynabead™ (Dynal USA); washed with Buffers A and B; eluted into SDS gel loading buffer; and subjected to SDS-PAGE, Western blot transfer and immuodetection with anti-HA (16B12; Covance, Richmond, Calif.) and anti-FLAG (M2; Sigma) antibodies. […] Cells were harvested by scraping, washed with chilled PBS, suspended in Buffer C (Buffer A supplemented with 0.02% NP-40), and lysed by a nitrogen cavitation method (PARR Instrument Co). […] Formed complexes were precipitated by sheep anti-rat antibodies conjugated to Dynabeads™ (Dynal USA); washed with Buffers C; eluted into SDS gel loading buffer; and subjected to SDS-PAGE, Western blot transfer and immuodetection with anti-HA (16B12; Covance, Richmond, Calif.) and anti-MCL1 (Santa Cruz Biotechnology) antibodies.

Regarding “Fortilin: 172 amino acid anti-apoptotic polypeptide (SEQ ID NO:2), overexpressed from expression constructs or used as recombinant/in vitro translated protein”, the “suppression of p53 induced apoptosis (apoptotic index)” value with H1299 cells was “statistically significant (p<0.001) suppression of p53-induced apoptosis; also recorded: statistically significant (p<0.001) suppression of p53 induced apoptosis”. Further, the “cytotoxicity index relative to control transfectants” value in the data set with U2OS cells [1] (listed as wild type Fortilin) is “significantly lower”; in the data set on U2OS cells [1] (listed as wild-type fortilin) it was “significantly lower than the cytotoxicity index of control cells”. For the same substance, the “etoposide-induced cytotoxicity (LDH cytotoxicity index), time course” value in the data set on U2OS cells [1] (U2OS stably expressing Fortilin vs empty vector, 5 μg/mL etoposide, 48, 72, 96 hours) was “lesser amounts of etoposide-induced cytotoxicity after incubation periods of 48, 72, and 96 hours; also recorded: significantly less cytotoxicity at various time points after the etoposide challenge”. For the same substance, in the data set on U2OS cells [1] (U2OS stably expressing Fortilin vs empty vector, etoposide 2.5, 5, 10, 20 μg/mL, 48 hours), the “etoposide-induced cytotoxicity (LDH cytotoxicity index), dose response” value is “significantly lesser amounts of etoposide-induced cytotoxicity; also recorded: significantly less cytotoxicity over the wide range of etoposide concentrations”. The “co-precipitation of fortilin and p53 in vivo” value with p53 is “The presence of immunoprecipitated p53 was necessary and sufficient to co-precipitate fortilin”. The “interaction / co-immunoprecipitation with MCL1 in vitro” value with MCL1 [2] is “co-immunoprecipitated with Fortilin in vitro”; with MCL1 [2] (listed as full-length Fortilin), “co-immunoprecipitated MCL1 in vitro; also recorded: interacted”. Also, the “co-immunoprecipitation of Bcl-xL with Fortilin in vitro” value with Bcl-xL was “not”. Besides, the “prevention of Bax mediated apoptosis (apoptotic index)” value in the data set with U2OS cells [3] was “suppressed Bax induced cell death”. Further, in the data set with PCNA, the “co-immunoprecipitation of PCNA with Fortilin in vitro” value is “not PCNA”. For the same substance, the “co-immunoprecipitation of MCL1 in vivo” value in the data set with MCL1 [4] is given as “co-immunoprecipitated MCL1”.
